US20170009224A1

Molecular target: lambda repressor cI comprising a TEV protease cleavage site (ENLYFQ(G/S)) within the interdomain linker (UniProt P03034)
Assay: cell-based or functional assay

TEV protease (wild type), sequence (P04517 2038-2279): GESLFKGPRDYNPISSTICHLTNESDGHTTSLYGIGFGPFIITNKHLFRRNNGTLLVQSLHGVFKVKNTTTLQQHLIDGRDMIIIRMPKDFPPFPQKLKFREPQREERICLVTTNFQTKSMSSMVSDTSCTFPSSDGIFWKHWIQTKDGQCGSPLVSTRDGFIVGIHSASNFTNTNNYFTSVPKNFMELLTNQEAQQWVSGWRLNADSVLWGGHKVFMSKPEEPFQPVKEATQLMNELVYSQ

Substance “TEV protease (wild type) (from UniProt P04517 2038-2279) (enzyme)” has a gene expression from the pR promoter driving pIII and luciferase of over 100 fold.
